According to PMC5772613, “Phosphorylation induced cochaperone unfolding promotes kinase recruitment and client class-specific Hsp90 phosphorylation” (Nature Communications, 2018):
Square brackets hold non-standard residues; d marks the D form. Ends that are not written are not given here. pY = N[C@@H](Cc1ccc(OP(=O)(O)O)cc1)C(=O)O

Tests used:
Conditions in all cases: both partners purified
SH2 domain of Yes = molecular target: T1, SH2 domain of Yes (UniProt P07947 158-255); test: ITC; phosphopeptide (600-750 μM, syringe) titrated into SH2 domain (50-60 μM, cell); 25 °C; 20 mM Tris, 100 mM NaCl, 0.5 mM EDTA, 1 mM TCEP; single binding site model
T1 construct: Yes, SH2 domain; Gift of Bruce Mayer (pGEX); 15N-labelled for NMR; also called Yes^SH2; SH2^Yes; source: E. coli BL21(DE3), purified (GST column, PreScission cleavage, second GST column, Superdex 75); not shown: GST, N-terminal, cleaved
T1 sequence (P07947 158-255): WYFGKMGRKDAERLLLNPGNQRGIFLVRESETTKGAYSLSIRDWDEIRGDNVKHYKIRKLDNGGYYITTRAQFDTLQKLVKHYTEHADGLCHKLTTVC

Full-length Hsp90β [1] = molecular target: T2, Full-length Hsp90β (UniProt P08238 1-724); test: ITC; cochaperone Cdc37 (~300-400 μM, syringe) titrated into Hsp90β variants (~20-30 μM, cell); 25 °C; 20 mM Tris, 100 mM NaCl, 0.5 mM EDTA, 1 mM TCEP; single binding site model
T2 construct: Hsp90β (printed as full-length Hsp90αβ1), in pET28; also called Hsp90αβ1
T2 sequence (P08238 whole entry): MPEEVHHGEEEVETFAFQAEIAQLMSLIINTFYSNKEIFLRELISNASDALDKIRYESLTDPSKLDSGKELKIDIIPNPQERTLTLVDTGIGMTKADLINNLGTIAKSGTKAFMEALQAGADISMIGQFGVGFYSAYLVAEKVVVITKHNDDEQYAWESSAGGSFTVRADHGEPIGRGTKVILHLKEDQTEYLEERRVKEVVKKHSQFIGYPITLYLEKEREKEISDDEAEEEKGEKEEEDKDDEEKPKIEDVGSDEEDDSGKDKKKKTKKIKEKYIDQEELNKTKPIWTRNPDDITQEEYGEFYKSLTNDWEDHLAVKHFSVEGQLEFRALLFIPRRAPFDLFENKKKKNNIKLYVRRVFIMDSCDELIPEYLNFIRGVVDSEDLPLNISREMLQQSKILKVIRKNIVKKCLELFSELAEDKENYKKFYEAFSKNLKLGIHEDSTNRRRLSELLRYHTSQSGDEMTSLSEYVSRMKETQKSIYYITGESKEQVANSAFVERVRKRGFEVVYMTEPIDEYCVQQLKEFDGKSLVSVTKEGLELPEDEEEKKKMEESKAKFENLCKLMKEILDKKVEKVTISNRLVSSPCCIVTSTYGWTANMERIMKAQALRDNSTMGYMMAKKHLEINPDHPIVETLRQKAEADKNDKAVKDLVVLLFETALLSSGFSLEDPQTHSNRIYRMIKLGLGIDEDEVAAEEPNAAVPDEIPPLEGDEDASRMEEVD

Full-length Hsp90β [2] = molecular target: T2, Full-length Hsp90β; test: SEC; analytical, Biorad Enrich SEC 650, 4 °C; 20 mM Tris pH 7.5, 100 mM NaCl, 0.5 mM EDTA, 2 mM DTT; binary mixtures 1:1 and ternary mixtures Hsp90:Cdc37:bRaf 2:1:1, incubated 15 min at 4 °C

Binder	binding result (Full-length Hsp90β [2])	further results
EV[pY]ESLPEEL (Cdc37, residues 296-305; also called phosphopeptide; source: synthetic peptide (GL Biochem)) [Phosphotyrosine-modified decapeptide EVpYESLPEEL of Cdc37 (residues 296-305)]	–	Kd (SH2 domain of Yes): 410 nM
Full-length human Cdc37 (natural protein, UniProt Q16543 1-378, looked up, Cdc37 (p50), human, full length; isotope-labelled in some NMR samples; also called p50; wild-type Cdc37) MVDYSVWDHIEVSDDEDETHPNIDTASLFRWRHQARVERMEQFQKEKEELDRGCRECKRKVAECQRKLKELEVAEGGKAELERLQAEAQQLRKEERSWEQKLEEMRKKEKSMPWNVDTLSKDGFSKSMVNTKPEKTEEDSEEVREQKHKTFVEKYEKQIKHFGMLRRWDDSQKYLSDNVHLVCEETANYLVIWCIDLEVEEKCALMEQVAHQTIVMQFILELAKSLKVDPRACFRQFFTKIKTADRQYMEGFNDELEAFKERVRGRAKLRIEKAMKEYEEEERKKRLGPGGLDPVEVYESLPEELQKCFDVKDVQMLQDAISKMDPTDAKYHMQRCIDSGLWVPNSKASEAKEGEEAGPGDPLLEAVPKTGDEKDVSV	–	binding result (Full-length Hsp90β [1]): binds
Cdc37 single phosphomimetic mutant Y4E (natural protein, human, UniProt Q16543 1-378, looked up, Cdc37 (p50), human, point mutant of the full-length construct; also called Cdc37^Y4E) MVDESVWDHIEVSDDEDETHPNIDTASLFRWRHQARVERMEQFQKEKEELDRGCRECKRKVAECQRKLKELEVAEGGKAELERLQAEAQQLRKEERSWEQKLEEMRKKEKSMPWNVDTLSKDGFSKSMVNTKPEKTEEDSEEVREQKHKTFVEKYEKQIKHFGMLRRWDDSQKYLSDNVHLVCEETANYLVIWCIDLEVEEKCALMEQVAHQTIVMQFILELAKSLKVDPRACFRQFFTKIKTADRQYMEGFNDELEAFKERVRGRAKLRIEKAMKEYEEEERKKRLGPGGLDPVEVYESLPEELQKCFDVKDVQMLQDAISKMDPTDAKYHMQRCIDSGLWVPNSKASEAKEGEEAGPGDPLLEAVPKTGDEKDVSV	binds	–
Full-length Cdc37 carrying the phosphomimetic mutation Y298E (natural protein, human, UniProt Q16543 1-378, looked up, Cdc37 (p50), human, full length, point mutant; Point mutants made by QuikChange; Methyl-labelled for the NMR sample with Hsp90α; also called Cdc37^Y298E) MVDYSVWDHIEVSDDEDETHPNIDTASLFRWRHQARVERMEQFQKEKEELDRGCRECKRKVAECQRKLKELEVAEGGKAELERLQAEAQQLRKEERSWEQKLEEMRKKEKSMPWNVDTLSKDGFSKSMVNTKPEKTEEDSEEVREQKHKTFVEKYEKQIKHFGMLRRWDDSQKYLSDNVHLVCEETANYLVIWCIDLEVEEKCALMEQVAHQTIVMQFILELAKSLKVDPRACFRQFFTKIKTADRQYMEGFNDELEAFKERVRGRAKLRIEKAMKEYEEEERKKRLGPGGLDPVEVEESLPEELQKCFDVKDVQMLQDAISKMDPTDAKYHMQRCIDSGLWVPNSKASEAKEGEEAGPGDPLLEAVPKTGDEKDVSV	binds	–
Cdc37 double-phosphomimetic mutant Y4E/Y298E (natural protein, human, UniProt Q16543 1-378, looked up, Cdc37 (p50), human, double point mutant of the full-length construct; also called Cdc37^EE; C^EE) MVDESVWDHIEVSDDEDETHPNIDTASLFRWRHQARVERMEQFQKEKEELDRGCRECKRKVAECQRKLKELEVAEGGKAELERLQAEAQQLRKEERSWEQKLEEMRKKEKSMPWNVDTLSKDGFSKSMVNTKPEKTEEDSEEVREQKHKTFVEKYEKQIKHFGMLRRWDDSQKYLSDNVHLVCEETANYLVIWCIDLEVEEKCALMEQVAHQTIVMQFILELAKSLKVDPRACFRQFFTKIKTADRQYMEGFNDELEAFKERVRGRAKLRIEKAMKEYEEEERKKRLGPGGLDPVEVEESLPEELQKCFDVKDVQMLQDAISKMDPTDAKYHMQRCIDSGLWVPNSKASEAKEGEEAGPGDPLLEAVPKTGDEKDVSV	binds	–
